Results reported in patent publication US20170319690A1 (AGENCY FOR SCIENCE TECHNOLOGY AND RESEARCH, published 2017).
Where a chain is given by its changes, count along the chain named.

What was measured:
[1] = target: biotinylated murine PD-L1 (murine) (UniProt Q9EP73); test: blocking ELISA; murine PD-L1 binding to murine PD-1 (the blocked partner) in the presence of the IgG
[2] = target: T1, biotinylated human PD-L1 (human, UniProt Q9NZQ7 19-239, limits assumed, biotinylated); test: avidity ELISA; biotinylated human PD-L1 (0.2 ug/mL) captured on a neutravidin plate, IgG titrated, anti-human Fc-HRP/TMB
T1 construct: construct not described
T1 sequence (Q9NZQ7 19-239 limits assumed): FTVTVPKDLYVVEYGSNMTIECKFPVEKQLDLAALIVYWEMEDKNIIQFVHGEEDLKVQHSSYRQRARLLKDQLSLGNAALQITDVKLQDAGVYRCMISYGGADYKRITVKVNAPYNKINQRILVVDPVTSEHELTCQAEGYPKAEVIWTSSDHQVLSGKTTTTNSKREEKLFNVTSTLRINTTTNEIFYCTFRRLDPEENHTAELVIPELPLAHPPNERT
Experimental: Neutravidin was coated onto maxisorp plates at 2 μg/mL in coating buffer and incubated overnight at 4° C. The next day, plates were washed with wash buffer (PBS+0.05% Tween-20), and blocker with casein for 1 hour, at room temperature. Plates were then washed again using wash buffer. […] Plates were then washed again using wash buffer. The different antibodies were then added at various concentrations, and incubated for 1 hour at room temperature. Plates were then washed again using wash buffer. Anti-human Fc-HRP was then added and incubated for 1 hour at room temperature. Plates were then washed again using wash buffer. Finally, TMB was added to develop the ELISA; TMB conversion by HRP was stopped using 1M H—Cl.

[3] = target: T1, biotinylated human PD-L1; test: ELISA; antibody coated on the plate at 2 ug/mL, biotinylated human PD-L1 titrated (x axis: Human PD-L1, nM), streptavidin-HRP/TMB
Experimental: Binding was measured by ELISA. Antibodies were coated onto maxisorp plates at 2 μg/mL in coating buffer and incubated overnight at 4° C. The next day, plates were washed with wash buffer (PBS+0.05% Tween-20), and blocker with casein for 1 hour, at room temperature. Plates were then washed again using wash buffer. […] Plates were then washed again using wash buffer. […] Plates were then washed again using wash buffer. Finally, TMB was added to develop the ELISA; TMB conversion by HRP was stopped using 1M H—Cl.

[4] = target: T1, biotinylated human PD-L1; test: blocking ELISA; biotinylated human PD-L1 pre-incubated with the Fab, then added to plate-coated human PD-1-Fc (the blocked partner); streptavidin-HRP/TMB
[5] = target: T2, human PD-L1 expressed on cells (human, UniProt Q9NZQ7 19-290); test: flow cytometry blocking assay; antibody mixed with human PD-1-PE (the blocked partner) and added to HEK293 cells transfected with human PD-L1
T2 construct: whole, on cells; also called PD-L1 transfected HEK 293 cells; HEK293-6E cells transfected with human PD-L1
T2 sequence (Q9NZQ7 19-290): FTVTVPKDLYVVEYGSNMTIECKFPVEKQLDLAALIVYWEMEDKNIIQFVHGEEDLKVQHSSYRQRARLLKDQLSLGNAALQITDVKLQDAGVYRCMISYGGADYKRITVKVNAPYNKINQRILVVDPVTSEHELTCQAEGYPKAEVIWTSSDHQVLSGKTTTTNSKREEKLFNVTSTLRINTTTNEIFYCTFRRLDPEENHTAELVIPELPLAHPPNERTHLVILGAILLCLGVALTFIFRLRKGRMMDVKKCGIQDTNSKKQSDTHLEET
Source text: Cells were washed 3 times with PBS and all data were collected on a BD FACSCanto II (BD Bioscience) and analysed on BD FACSDiva software (BD Bioscience).

biotinylated murine PD-L1 (murine), sequence (Q9EP73 19-238 limits assumed): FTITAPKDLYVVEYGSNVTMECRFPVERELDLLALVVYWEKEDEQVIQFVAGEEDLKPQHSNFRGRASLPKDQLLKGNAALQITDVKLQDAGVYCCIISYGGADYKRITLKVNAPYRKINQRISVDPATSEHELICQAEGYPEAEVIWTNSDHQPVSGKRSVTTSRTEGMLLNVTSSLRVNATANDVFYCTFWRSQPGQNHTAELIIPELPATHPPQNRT

Molecule: commercially available anti-murine PD-L1 IgG antibody 10F.9G2 (BioLegend)
- IC50 (read off the curve) [1]: 10 nM

B1: anti-PD-L1 antibody C4 (format not stated in the example) (antibody, V domains shown)
VH: QVQLQQSGAEVKKPGSSVKVSCKASGGTFSSYAISWVRQAPGQGLEWMGRIIPILGIANYAQKFQGRVTITADKSTSTAYMELSSLRSEDTAVYYCARGGYGGNSLYAFDIWGQGTMVTVSS
VL: QSVVTQPPSVSAAPGQKVTISCSGSSSNIGNNYVSWYQQLPGTAPKLLIYDNNERLSGIPDRFSGSKSGTSATLGISGLQTGDEADYYCGTWDSSLSVVVFGGGTKLTVL
notes: detected with anti-human Fc-HRP in the avidity ELISA, so it carried an Fc there
- EC50 (read off the curve) [2]: ~0.9 nM
- EC50 (read off the curve) [3]: ~0.9 nM

B2: anti-PD-L1 antibody clone A1, Fab format (Fab, V domains shown)
VH: QVQLQQSGAEVKKPGSSVKVSCKASGGTFSSYAISWVRQAPGQGLEWMGRIIPILGIANYAQKFQGRVTITADKSTSTAYMELSSLRSEDTAVYYCARGGSYGSLYAFDIWGQGTMVTVSS
VL: QSVLTQPPSVSAAPGQRVSISCSGRSSNIASHDVFWYQQLPGTAPKIVMYETNKRPWGIPDRFSGSKSGTSATLDIAGLQTGDEADYYCGAWDSGLTGMLFGGGTKVTVL
notes: Human Fab from a phage display library
- IC50 (read off the curve) [4]: ~50 nM

B3: anti-PD-L1 antibody H12_GL, IgG1 format (antibody, V domains shown)
VH: B2 VH with Q5V, G99S, S101H, Y102G, G103Y, L105Y, Y106G, I110Y, M116L
VL: QSVLTQPPSVSGAPGQRVTISCTGSSSNIGAGYDVHWYQQLPGTAPKLLIYGNSNRPSGVPDRFSGSKSGTSASLAITGLQAEDEADYYCQSYDSSLSGSYVVFGGGTKLTVL
notes: IgG1
- IC50 (read off the curve) [5]: ~7 nM

B4: anti-PD-L1 antibody clone C2, Fab format (Fab, V domains shown)
VH: B2 VH with M116T
VL: SYELTQPPSVSVAPGKTTRITCGGDNIGRKSVHWYQQRPGQAPLLLVYDDGDRPSGIPDRFSGSNSGNTATLTISGTQAMDEADYYCQAWDSTVVFGGGTRLTVL
notes: as for B2
- IC50 (read off the curve) [4]: ~40 nM

B5: anti-PD-L1 antibody H12_GL, IgG4 format (antibody, V domains shown)
VH: B2 VH with Q5V, G99S, S101H, Y102G, G103Y, L105Y, Y106G, I110Y, M116L
VL: B3 VL
notes: IgG4
- IC50 (read off the curve) [5]: ~7 nM

B6: anti-PD-L1 antibody H12, IgG1 format (antibody, V domains shown)
VH: EVQLVQSGAEVKKPGASVKVSCKASGGTFSSYAISWVRQAPGQGLEWMGRIIPILGIANYAQKFQGRVTITADKSTSTAYMELSSLRSEDTAVYYCARSGHGYSYGAFDYWGQGTL
VL: B3 VL
notes: IgG1
- IC50 (read off the curve) [5]: ~9 nM

B7: anti-PD-L1 antibody H12, IgG4 format (antibody, V domains shown)
VH: B6 VH
VL: B3 VL
notes: IgG4
- IC50 (read off the curve) [5]: ~9 nM
